Measurements: patent US20220372105A1 (POSEIDA THERAPEUTICS, published 2022)

Target: T1, CD58 (UniProt P19256 29-215, limits assumed)
T1 construct: also called naturally occurring CD58
T1 sequence (looked up): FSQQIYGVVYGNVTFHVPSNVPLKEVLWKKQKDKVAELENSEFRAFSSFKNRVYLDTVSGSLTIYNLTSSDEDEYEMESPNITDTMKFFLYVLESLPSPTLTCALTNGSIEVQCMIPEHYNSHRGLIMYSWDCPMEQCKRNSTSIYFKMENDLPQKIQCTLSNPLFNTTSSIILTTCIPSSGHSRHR
Test: not described (screen of a CSR mutant panel)

binding result: no binding
B1: CD2 extracellular domain with D111H mutation ("CD2 ECD (D111H)") (receptor)
chain: KEITNALETWGALGQDINLDIPSFQMSDDIDDIKWEKTSDKKKIAQFRKEKETFKEKDTYKLFKNGTLKIKHLKTDDQDIYKVSIYHTKGKNVLEKIFDLKIQERVSKPKISWTCINTTLTCEVMNGTDPELNLYQDGKHLKLSQRVITHKWTTSLSAKFKCTAGNKVSKESSVEPVSCPEKGLD
notes: also called CSR CD2z-D111H mutant; mutant CSR
